Test results published in US20070207532.

Legend:
[1] = biological target: AGT mutant of Example 1 (GST fusion) Lys125Ala, Ala127Thr, Arg128Ala, Asn157Gly, Ser159Glu (Homo sapiens) (UniProt P16455); settings: co-purified DNA estimated by A280/A260 after purification in 50 mM phosphate, 0.1 M NaCl, 1 mM DTT
[2] = biological target: PGEG-hAGT (GST fusion) Asn157Gly, Ser159Glu (Homo sapiens) (UniProt P16455); assay: inhibition; settings: BG-Cy3 reaction rate with 25 ug/ml DNA
Chain of PGEG-hAGT (GST fusion) Asn157Gly, Ser159Glu (Homo sapiens) (P16455 whole entry N157G/S159E, the tested form may be a part): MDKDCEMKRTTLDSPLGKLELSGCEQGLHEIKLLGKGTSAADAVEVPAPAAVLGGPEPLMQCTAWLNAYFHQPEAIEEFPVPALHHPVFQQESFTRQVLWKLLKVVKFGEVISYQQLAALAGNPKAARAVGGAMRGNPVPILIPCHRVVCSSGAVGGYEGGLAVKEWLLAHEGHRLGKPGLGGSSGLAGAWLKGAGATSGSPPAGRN

Chain of AGT mutant of Example 1 (GST fusion) Lys125Ala, Ala127Thr, Arg128Ala, Asn157Gly, Ser159Glu (Homo sapiens) (P16455 whole entry K125A/A127T/R128A/N157G/S159E, the tested form may be a part): as the sequence (P16455 whole entry N157G/S159E, the tested form may be a part) above, with K125A, A127T, R128A counted along it

Substance	binding signal [1]	activity (fold rate reduction) [2]
co-purified E. coli DNA	> 10 fold reduced	–
salmon sperm DNA	–	5
